The results in this text go back to patent US20060252118.

Series [1] deals with T1, Peptide 2 (phosphothreonine peptide) H-Thr-Ala-Asp-Ser-Gln-His-Ser-pThr-Pro-Pro-Lys-Lys-Lys-Arg-Lys-Val-Glu-OH.
T1 chain: TADSQHSTPPKKKRKVE

For series [2], the target named is T2, Peptide 3 (phosphotyrosine peptide) H-Glu-Trp-Met-Arg-Glu-Asn-Ala-Glu-pTyr-Leu-Arg-Val-Ala-OH.
T2 chain: EWMRENAEYLRVA

Series [3] deals with T3, Peptide 1 (phosphoserine peptide) H-Val-Pro-Ile-Pro-Gly-Arg-Phe-Asp-Arg-Arg-Val-pSer-Val-Ala-Ala-Glu-NH2.
T3 chain: VPIPGRFDRRVSVAAE

The target of series [4] is Tyrosine (Tyr) phosphorylated Myelin Basic Protein substrate (33P labeled).
Sequence of Tyrosine (Tyr) phosphorylated Myelin Basic Protein substrate (33P labeled) (P02687 whole entry): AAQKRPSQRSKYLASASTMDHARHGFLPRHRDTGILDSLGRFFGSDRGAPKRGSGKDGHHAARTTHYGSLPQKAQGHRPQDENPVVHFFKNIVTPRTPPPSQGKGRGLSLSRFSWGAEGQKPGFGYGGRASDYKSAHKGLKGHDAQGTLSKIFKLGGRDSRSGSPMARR
Series [5] deals with Serine/threonine (Ser/Thr) phosphorylated Myelin Basic Protein substrate (33P labeled).
Sequence of Serine/threonine (Ser/Thr) phosphorylated Myelin Basic Protein substrate (33P labeled) (P02687 whole entry): as above

B1: thermolabile Antarctic phosphatase (TAP), truncated, with N-terminal His-tag (expressed from pEGTAP7.4.1) (protein)
chain: MHHHHHHMKLKKIVFTLIALGLFSCKTTSVLVKNEPQLKTPKNVILLISDGAGLSQISSTFYFKEGTPNYTQFKNIGLIKTSSSREDVTDSASGATAFSCGIKTYNAAIGVADDSTAVKSIVEIAALNNIKTGVVATSSITHATPASFYAHALNRGLEEEIAMDMTESDLDFFAGGGLNYFTKRKDKKDVLAILKGNQFTINTTGLTDFSSIASNRKMGFLLADEAMPTMEKGRGNFLSAATDLAIQFLSKDNSAFFIMSEGSQIDWGGHANNASYLISEINDFDDAIGTALAFAKKDGNTLVIVTSDHETGGFTLAAKKNKREDGSEYSDYTEIGPTFSTGGHSATLIPVFAYGPGSEEFIGIYENNEIFHKILKVTKWNQ
In the case of B1, the “units of TAP required to completely remove the phosphates from 5 µg of the peptide in 10 mins (Cap-HPLC)” value in series [1] was 2.5 units and 10 units of TAP were required to completely remove the phosphates from the phospho-serine and phospho-threonine peptides respectively; in series [3], 2.5 units and 10 units of TAP were required to completely remove the phosphates from the phospho-serine and phospho-threonine peptides respectively. For the same protein, in series [2], the “units of enzyme required to remove all the phosphates from 5 µg of the peptide in 10 mins (Cap-HPLC)” value was “only 0.02 units of enzyme being required to remove all the phosphates from 5 µg of the peptide in 10 mins”. The results for the “specific activity (release of 33P from phosphorylated MyBP, TCA-soluble counts)” value in series [4] and in series [5] were “also greater than the specific activity for CIAP” and 1910 nmol/min/mg, respectively.
